# From paper PMC3272369
# Where two headings read alike, the source gives them in different places.
# Key:
# Assay in all cases: SPR
# [1] = biological target: complement factor H, allotypic variant Val62 (human) (UniProt P08603)
# [2] = biological target: complement factor H, allotypic variant Ile62 (human) (UniProt P08603)
# [3] = biological target: complement factor H, allotypic variant Ile62 (human) (UniProt P08603); remark: listed apart in the source
substance,measurement,setting,value
C3b (from UniProt P01024 23-667; P01024 749-1663) (domain or fragment),Kd,[1],1330 nM
same,Kd,[2],1030 nM
same,Kd,[3],1040 nM
